molecular target: T1, Rhesus D antigen (human, UniProt Q02161 2-417); assay: agglutination assay, Fab on RhD(+)/RhD(-) RBC mix
T1 construct: whole, on cells; Presented on RhD-positive erythrocytes in all assays; also called RhD; RhD antigen
T1 sequence (looked up): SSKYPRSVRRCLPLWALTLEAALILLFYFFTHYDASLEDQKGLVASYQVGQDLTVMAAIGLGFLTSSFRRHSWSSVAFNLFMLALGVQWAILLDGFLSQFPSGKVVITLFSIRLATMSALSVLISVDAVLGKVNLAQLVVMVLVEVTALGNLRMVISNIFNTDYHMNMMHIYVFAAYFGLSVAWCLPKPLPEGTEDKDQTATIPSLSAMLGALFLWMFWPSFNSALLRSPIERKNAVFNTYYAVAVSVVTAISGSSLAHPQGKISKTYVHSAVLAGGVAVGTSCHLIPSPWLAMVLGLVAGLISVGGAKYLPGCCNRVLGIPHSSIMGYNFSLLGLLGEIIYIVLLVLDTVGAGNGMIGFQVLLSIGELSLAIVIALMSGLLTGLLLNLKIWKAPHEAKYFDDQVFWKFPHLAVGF
Protocol: After each round of panning single colonies were picked for analysis of their binding properties to red blood cells in agglutination assays. Briefly, single colonies were inoculated into 2×YT/100 μg/mL carbenicillin/1% glucose and shaken overnight at 37° C. The next day, DeepWell plates were inoculated using 900 μl 2×YT/100 μg/mL carbenicillin/0.1% glucose and 10 μl overnight culture. The plates were shaken for two hours at 37° C., before Fab induction was performed with addition of 300 μl 2×YT/100 μg/mL carbenicillin/0.25 mM IPTG per well. The plate was shaken overnight at 30° C. The following day, the bacteria were pelleted by centrifugation (3200×g, 4° C., 10 minutes), and re-suspended in 100 μl of 0.8 M NaCl, 0.2×PBS, 8 mM EDTA, and incubated for 15 minutes on ice in order to perform a periplasmic extraction of the Fab fragments. The plate was transferred to −20° C. and finally the suspension was thawed and centrifugation was performed for 10 minutes at 4° C. and 3200×g. The periplasmic extract was used in ELISA assays for analysis of Fab content and in agglutination assays to evaluate the binding potential of the individual Fab fragments. The agglutination assay was performed as follows: RhD(−) and RhD(+) RBC were mixed in a 1:1 ratio, and washed 3 times in PBS. After the final wash, the cell mix was re-suspended in 1% BSA in PBS at a density of 1% cells, 50 μl was added to each well of a 96-plate. Periplasmic extracts were added to the wells. As a positive control Rhesogamma P immunoglobulin (Aventis) was used according to the manufacturer's instructions. The plates were incubated for one hour at room temperature with gentle shaking. The cells were washed three times with PBS, before the secondary antibody was added (goat anti-human Fab/FITC conjugate, Sigma F5512) in a 1:100 dilution. The plates were left for agglutination for one hour at room temperature without shaking. Fab fragments positive in the agglutination assay was determined by visual inspection, and recorded by taking a picture. Quantization of the binding activity of the Fab fragments was performed by FACS analysis of the agglutination samples.

Row | Binder | binding result
1 | RhD190.119F05 (Fab, V domains shown, Tested as Fab (periplasmic extract)) VH: EVQLVETGGGVVQPGRSLRLSCAASGFSFSNYGMHWVRQAPGKGLEWVAVIWFDGSIKYYVDSVKGRFTISRDNSKNTLYLQMNSLRAEETAIYFCARENSVLVPGTIRRRYYLDYWGQGTLVTVSS VL: DIQLTQSPSSLSASVGDRVTITCRASQSISSYLNWYQQKPGEAPKLLIYVASTLQSGAPSRFSGSGSGTDYTLTISSLQPEDSATFYCQQTYSPPYTFGQGTKLEIKR | binds
2 | RhD197.127A08 (Fab, V domains shown, Tested as Fab (periplasmic extract); lambda clone) VH: QVQLVESGGGVVQPGRSLRLSCAASGFTFSNYGMHWVRQAPGKGLEWVAVIWFDGSNRDYADSVKGRFTISRDNSKKTLYLQMNSLRAEDTAVYYCATELARGRLRALEYWGQGTLVTVSS VL: QTVVTQEPSLTVSPGGTVTLTCASSTGAVTTGYYPNWFQQKPGQAPRALIYSTSKKHSWTPARFSGSLLGGKAALTLSGVQPEDEAEYYCLLFYGGAQLGVFGGGTKLTVLG | binds
3 | RhD207.127A11 (Fab, V domains shown, Tested as Fab (periplasmic extract)) VH: EVQLVESGGGVVQPGRSLRLSCAASGFTFSSYGMHWVRQAPGKGLEWVAVIWYDGSNKDYVDSVKGRFTISRDNSKNTLYLQMNSLRAEDTAVYYCARELAKGRLRDLDHWGQGTLVTVSS VL: QAVVTQEPSLTVSPGGTVTLTCASSTGAVTTGYYPNWFQQKPGQAPRALVHSTSKKHSWTPARFSGSLLGGKAALTLSGVQPEDEAEYYCLLFYGGAQLGVFGGGTKLTVLG | binds
4 | RhD191.119E08 (Fab, V domains shown, Tested as Fab (periplasmic extract)) VH: QVQLVESGGDLVQPGGSLRLSCAASGFTFRSYEMNWVRQAPGKGLEWVSYINSRGNTKYYADSVKGRFTISRDNAKKSLYLQMSSLRAEDTAVYYCARNLFGDYDLKSYYYNAMDVWGQGTLVTVSS VL: EIVLTQSPGTLSSSPGERATLSCRASQSVTSRYLAWYQQKHGQAPRLLIYGTSTRATGIPDRFSGGGSQTDFTLTISRLEPEDFAVYYCQHYDDSISTYIFGPGTELEIKR | binds
5 | RhD192.119G06 (Fab, V domains shown, Tested as Fab (periplasmic extract)) VH: QVQLVESGGGLVKPGGSLRLSCAASGFTFSSYAMNWVRQAPGKGLEWVSSISGTSSYIYYADSVKGRFTIFRDNAKSSVYLQMNSLRVEDTAVYYCARDRWWGMVRRVFPTYPFDYWGQGTLVTVSS VL: DIQLTQSPSSVSASVGDRVTITCRASQGINNLLAWYQQKPGKAPKLLIYAASNLQSGVPSRFSGSGSGTDFTLTINSLQPEDFATYYCQQANSFPLTFGGGTKVEIKR | binds
6 | RhD193.126G05 (Fab, V domains shown, Tested as Fab (periplasmic extract)) VH: QVQLVETGGGVVQPGRSLRLSCAASGFTFSSYGMHWVRQAPGKGLEWVAVIWYDGSNKDYADPVKGRFTISRDNSKNTLYLQMNSLRAEDTAVYYCAREIASRGYSRYLYYFDSWGQGTLVTVSS VL: DIQMTQSPSSLSASVGDRVTITCRASQSISSYLNWYQQNPGKAPKLLIYGASNLQSGVPSRFSGSGSGTDFTLTISSLQPEDFATYYCQQSYSTLALTFGGGTKVEIKR | binds
7 | RhD297.126E06 (Fab, V domains shown, Tested as Fab (periplasmic extract)) VH: QVQLVESGGGVVQPGRSLRLSCAASGFTFRTYGMHWVRQAPGKGLEWVAVIWYDGSNKDYADSVKGRFTISRDNSKNTLHLQMNSLRAEDTAVYYCAREIASRGYSRYLYYLDFWGQGTLVTVSS VL: DIQLTQSPSSLSASVGDRVTITCRASQSISSYLNWYQQNPGKAPKLLIYGASNLQSGVPSRFSGSGSGTDFTLTISSLQPEDFATYYCQQSYSTLALTFGGGTKVEIKR | binds
8 | RhD194.126G10 (Fab, V domains shown, Tested as Fab (periplasmic extract)) VH: QVTLKESGPVLVKPTETLTLTCTVSGFSLSNARMGVSWIRQPPGKALEWLAHIFSNDEKSYSTSLKSRLTISKDTSKSQVVLTMTNMDPVDTATYYCARMRLTMVRGVITYYYYSMDVWGQGTTVTVSS VL: DIQMTQSPSSLSASVGDRVTITCRASQSISTYLNWYQQKPGKAPKLLIYAASTLQSGVPSRFSGSGSGTHFTLTISSLQREDFATYYCQQTYRTPTWTFGQGTKVEIKR | binds
9 | RhD195.127A07 (Fab, V domains shown, Tested as Fab (periplasmic extract)) VH: QVQLQESGPGLVKPSQTLSLTCTVSGGSISSGSYYWSWIRQPAGKGPEWIGRIYTSGSTNYNPSLKSRLTISVDTSKNQFSLKLTSVTAADTAVYYCARAPSYYDSSGYRYWYIDLWGRGTLVTVSS VL: DIQLTQSPSSLSASVGDRVTITCRASQNINRYLNWYQHKPGRAPELLIYAASTLRRGVPSRFSGSGSGTDFTLTISSLQPEDFATYYCQQSYSRGTFGQGTKVEIKR | binds
10 | RhD298.126E10 (Fab, V domains shown, Tested as Fab (periplasmic extract)) VH: QVQLVESGGGVVQPGRSLRLSCAASGFTFSSYGMHWVRQAPGKGLEWVAVIWYDGSNKYYADSVKGRFTISRDNSKNTLYLQMNSVRAEDTAVYYCARDLSTQRGYSRYYYVMDVWGQGTTVTVSS VL: DIQMTQSPSSLSASVGDRVTITCRASQSISTYLNWYQQKPGKAPKLLISAASSLQSGVPSRFSGSGSGTDFTLTISSLQREDYAAYYCQQSYSTPPYTFGQGTKLEIKR | binds
11 | RhD196.126H11 (Fab, V domains shown, Tested as Fab (periplasmic extract)) VH: QVQLVESGGGVVQPGRSLRLSCAASGFTFSSYGMHWVRQAPGKGLEWVAVIWYDGSNKDYADSVKGRFTISRDNSKNTLYLQMNSVRAEDTAVYYCARELSTQRGYSRYHYVMDVWGQGTTVTVSS VL: DIQMTQSPSSLSASVGDRVTITCRASQSISTYLNWYQQKPGKAPKLLIYAASTLQSGVPSRFSGSGSGTHFTLTISSLQREDFATYYCQQSYGTPTWTFGQGTKVEIKR | binds
12 | RhD198.127F10 (Fab, V domains shown, Tested as Fab (periplasmic extract)) VH: QVQLVQSGGGVVQPGKSLRLSCAASGFTFSTYGMHWVRQAPGKGLEWVAVIWYDGSNKYYADSVKGRFTISRDTSKNTLYLQMNSVRVEDTAVYYCARDLTTQRGYSRYHYVMDVWGQGTTVTVSS VL: DIQMTQSPSSLSASVGDRVTITCRASQSIGNYLNWYQQKPGKAPKLLISAASSLQSGVPSRFSGSGSGTDFTLTISSLHREDYATYYCQQSYSTPPYTFGQGTKLEIKR | binds
13 | RhD199.164E03 (Fab, V domains shown, Tested as Fab (periplasmic extract)) VH: QVQLVESGGGVVQPGRSLRLSCAASGFTFSSYGMHWVRQAPGKGLEWVAVIWYDGSNKYYADSVKGRFTISRDNSKNTLHLQMNSLRAEDTAVYYCAREVGFGSGWSRYYYGMDVWGQGTTVTVSS VL: not shown | binds
14 | RhD157.119D11 (Fab, V domains shown, Tested as Fab (periplasmic extract)) VH: EVQLVESGGGLVQPGGSLRLSCVASGFTFRSFDMNWVRQAPGKGLEWVSYINSRGSTIYYADSVKGRFTISRENAKNSLYLQMNSLRAEDTAVYYCARDLYGDYDPKSYYYYGMGVWGQGTTVTVSS VL: EIVLTQSPATLSLSPGERATLSCRASQSVSSYLAWYQQKRGQAPRLLIFNASNRATGIPARFSGSGSGTDFTLTISSLEPEDFAVYYCQQRSSWPPMYTFGQGTKLEIKR | binds
15 | RhD200.164G10 (Fab, V domains shown, Tested as Fab (periplasmic extract)) VH: VQLVESGGGGVVQPGRSLRLSCAASGFTFSSYGMHWVRQAPGKGLEWVAVIWYDGSNKYYADSVKGRFTISRDNSKNTLYLQMNSLRAEDTAVYYCARESTLYSSSWYRRYYYYGMDVWGQGTTVTVSS VL: not shown | binds
16 | RhD201.164H12 (Fab, V domains shown, Tested as Fab (periplasmic extract)) VH: QVQLVESGGGVVQPGRSLRLSCAASGFTFSSYAMHWVRQAPGKGLEWVAVISYDGSNKYYADSVKGRFTISRDNSKNTLYLQMNSLRAEDTAVYYCARESTLYSSSWYRRYYYYSMDVWGQGTTVTVSS VL: EIVLTQSPATLSVSPGERATLSCRASQSVTSNLAWYQQKPGQAPRLLIYGASTRATGVPARFSGSGSGTEFSLTISSLQSEDFAVYYCQQYNNWPPIFTFGPGTKLDIKR | binds
17 | RhD202.158E07 (Fab, V domains shown, Tested as Fab (periplasmic extract)) VH: QVQLVESGGGVVQPGRSLRLSCAASGFTFSSYGMHWVRQAPGKGLEWVAVIWFDGSNRYYGDSVKGRVTISRDNSKNTLYLRMNSLRAEDTAVYYCAREFYTRSGLWSQGYSYYMDVWGKGTTVTVSS VL: EIVLTQSPGTLSLSPGERATLSCRASQSVSSSYLAWYQHKPGQAPRLLIYGSSNRATGIPDRFSGSGSGTDFTVTISRLEPEDFAVYYCQQYGTAPYTFGQGTKLEIKR | binds

— patent US20110217317A1 (published 2011)
